T1: full length PLXDC1 (PLXDC1-Full) (Homo sapiens, UniProt Q8IUK5)
T1 construct: expressed in transfected cells
T1 sequence (Q8IUK5 19-500): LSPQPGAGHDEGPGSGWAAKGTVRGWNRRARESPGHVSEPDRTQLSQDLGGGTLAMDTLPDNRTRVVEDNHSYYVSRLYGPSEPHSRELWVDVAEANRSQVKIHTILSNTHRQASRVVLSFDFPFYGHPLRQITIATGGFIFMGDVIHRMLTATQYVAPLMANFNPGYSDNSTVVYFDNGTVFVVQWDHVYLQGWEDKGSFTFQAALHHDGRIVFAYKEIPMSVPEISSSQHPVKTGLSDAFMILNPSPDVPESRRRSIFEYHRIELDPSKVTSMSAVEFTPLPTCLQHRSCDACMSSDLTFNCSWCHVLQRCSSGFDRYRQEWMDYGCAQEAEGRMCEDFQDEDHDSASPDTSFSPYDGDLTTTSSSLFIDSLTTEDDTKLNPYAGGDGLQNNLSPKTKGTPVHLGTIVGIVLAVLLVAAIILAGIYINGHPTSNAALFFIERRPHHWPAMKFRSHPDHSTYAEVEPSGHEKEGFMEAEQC

B1: A010: VH SEQ ID NO:176, VL SEQ ID NO:177; Domain A-binding PLXDC1-activating antibody (antibody, V domains shown)
VH: QVQLVQSGAEVKKPGSSVKVSCKASGGTFSDEAIHWVRQAPGQGLEWMGRIIPVLGIASYAQKFQGRVTITADESTSTAYMELSSLRSEDTAVYYCARGLSRRAFYFDYWGQGTLVTVSS
VL: DIQMTQSPSSLSASVGDRVTITCRASQTIGNYLNWYQQKPGKAPKLLIYVASSLQSGVPSRFSGSGSGTDFTLTISSLQPEDFATYYCQQSYRYPYTFGQGTKVEIK
B2: A008: VH SEQ ID NO:116, VL SEQ ID NO:117; Domain A-binding PLXDC1-activating antibody (antibody, V domains shown)
VH: EVQLLESGGGLVQPGGSLRLSCAASGFTFSNYAMSWVRQAPGKGLEWVSAISGGGSRTYYADSVKGRFTISRDNSKNTLYLQMNSLRAEDTAVYYCAREARVLGYSLDYWGQGTLVTVSS
VL: B1 VL with T28R, N31K, V50A, R93S, Y96L
B3: A001: VH SEQ ID NO:38, VL SEQ ID NO:39; Domain A-binding PLXDC1-activating antibody (antibody, V domains shown)
VH: EVQLLESGGGLVQPGGSLRLSCAASGFTFSSYAMSWVRQAPGKGLEWVSTIYASGATTYYADSVKGRFTISRDNSKNTLYLQMNSLRAEDTAVYYCARLKLYHAAFDIWGQGTLVTVSS
VL: B1 VL with T28D, G30S, N31S, V50T, R93S, Y96L
B4: A004: VH SEQ ID NO:20, VL SEQ ID NO:21; Domain A-binding PLXDC1-activating antibody (antibody, V domains shown)
VH: QVQLVESGGGVVQPGRSLRLSCAASGFTFSDYGMHWVRQAPGKGLEWVAVISYEGSNEYYADSVKGRFTISRDNSKNTLYLQMNSLRAEDTAVYYCARGSEGSGFDVWGQGTLVTVSS
VL: B1 VL with T28R, G30S, V50A, R93S, Y94P
B5: A005: VH SEQ ID NO:70, VL SEQ ID NO:71; Domain A-binding PLXDC1-activating antibody (antibody, V domains shown)
VH: B4 VH with E54D, N57R, E58K, D62N, E101Y, G102S, S103D
VL: B1 VL with T28S, G30S, N31R, P40T, V50G, R93S, Y94T
B6: A007: VH SEQ ID NO:112, VL SEQ ID NO:113; Domain A-binding PLXDC1-activating antibody (antibody, V domains shown)
VH: EVQLLESGGGLVQPGGSLRLSCAASGFTFRNYAMSWVRQAPGKGLEWVSSISGGGINTYYADSVKGRFTISRDNSKNTLYLQMNSLRAEDTAVYYCARVRSYSGPGYFDYWGQGTLVTVSS
VL: EIVMTQSPATLSVSPGDRATLSCRASRSVSSNLAWYQQKPGQAPRLLIYGASTRATGIPARFSGSGSGTEFTLTISSLQSEDFAVYYCQQYYNWPLTFGQGTKVEIK
B7: A002: VH SEQ ID NO:82, VL SEQ ID NO:83; Domain A-binding PLXDC1-activating antibody (antibody, V domains shown)
VH: EVQLLESGGGLVQPGGSLRLSCAASGFTFKNYAMSWVRQAPGKGLEWVSAISASGGYTYYADSVKGRFTISRDNSKNTLYLQMNSLRAEDTAVYYCARGRWGAFDYWGQGTLVTVSS
VL: QSVLTQPPSVSGAPGQRVTISCTGSSSNIGSGYDVHWYQQLPGTAPKLLIYGNRNRPSGVPDRFSGSKSGTSASLAITGLQAEDEADYYCQSYDSSLKTWVFGGGTKLTVL

Where a chain is given by its changes, count along the chain named.

The target of the first assay is T2, Domain A-deleted PLXDC1 (PLXDC1-dA) (Homo sapiens, UniProt Q8IUK5).
T2 construct: expressed in transfected cells
In words: Domain A binding specificity: binding to Domain A-deleted PLXDC1 expressed in transfected cells. The conditions noted are these: antibodies of Table 3 tested for ability to bind Domain A. An excerpt:
(§1) The specific binding to Domain A of a PLXDC protein can be tested with a method described herein. In some embodiments, the method employs a PLXDC with the Domain A deleted. […] An example is Compound 369 as described above.
(§2) The Domain A-binding antibodies are 3-C11, 4-A8, 5-E2, 2-H2, 3-G6, 3-G7, 8-A7, 8-A9, 8-C9 and 8-D9.
(§3) Both full length PLXDC1 and Domain A deleted PLXDC1 (PLXDC1-dA) have an epitope tag on the N-terminus.
For the molecule B1, the “binding to PLXDC1 mutant with Domain A deleted” value (shortened to “binding to PLXDC1 mutant”) is on record as “not the mutant with Domain A deleted”.

With B2, the “binding to PLXDC1 mutant” value was “not the mutant with Domain A deleted”.

On to B3, for which the “binding to PLXDC1 mutant” value is “not the mutant with Domain A deleted”.

Consider B4, for which the “binding to PLXDC1 mutant” value is “not the mutant with Domain A deleted”.

For the molecule B5, the “binding to PLXDC1 mutant” value was “not the mutant with Domain A deleted”.

Turning to B6, the “binding to PLXDC1 mutant” value is listed as “not the mutant with Domain A deleted”.

As to B7, the “binding to PLXDC1 mutant” value is “not the mutant with Domain A deleted”.

The assay is the same for the next values; noted with them: transfected into a cell line that does not express PLXDC1; FIG. 3-4.
Regarding B3, the “binding to Domain A-deleted PLXDC1 (PLXDC1-dA)” value (from here on “binding … (PLXDC1-dA)”) is “did not bind to Domain A-deleted PLXDC1”.

For the molecule B4, the “binding … (PLXDC1-dA)” value is listed as “did not bind to Domain A-deleted PLXDC1”.

With B5, the “binding … (PLXDC1-dA)” value is given as “did not bind to Domain A-deleted PLXDC1”.

Regarding B6, the “binding … (PLXDC1-dA)” value was “did not bind to Domain A-deleted PLXDC1”.

In the case of B7, the “binding … (PLXDC1-dA)” value was “did not bind to Domain A-deleted PLXDC1”.

A further assay deals with T1, full length PLXDC1 (PLXDC1-Full). In words: Domain A binding specificity: binding to full length PLXDC1 expressed in transfected cells. The conditions noted are these: antibodies of Table 3 tested for ability to bind Domain A.
Description: as §1, §2, §3
For the molecule B1, the “binding to PLXDC1” value is given as “able to bind PLXDC1”.

As for B2, the “binding to PLXDC1” value is “able to bind PLXDC1”.

Take B3: the “binding to PLXDC1” value was “able to bind PLXDC1”.

As to B4, the “binding to PLXDC1” value is reported as “able to bind PLXDC1”.

B5: the “binding to PLXDC1” value is on record as “able to bind PLXDC1”.

Turning to B6, the “binding to PLXDC1” value was “able to bind PLXDC1”.

On to B7, for which the “binding to PLXDC1” value is on record as “able to bind PLXDC1”.

The assay is the same for the next values; noted with them: transfected into a cell line that does not express PLXDC1; FIG. 3-4.
Take B3: the “binding to full length PLXDC1 (PLXDC1-Full)” value (“binding to full length PLXDC1” below) is on record as “only bound to full length PLXDC1”.

In the case of B4, the “binding to full length PLXDC1” value was “only bound to full length PLXDC1”.

Take B5: the “binding to full length PLXDC1” value is “only bound to full length PLXDC1”.

Consider B6, for which the “binding to full length PLXDC1” value is recorded as “only bound to full length PLXDC1”.

Consider B7, for which the “binding to full length PLXDC1” value was “only bound to full length PLXDC1”.

These data come from US20250333497A1, “ACTIVATING ANTIBODIES OF RECEPTOR PROTEINS PLXDC1 AND PLXDC2” (THE REGENTS OF THE UNIVERSITY OF CALIFORNIA, priority 2022, published 2025).
